According to patent publication US20260042834A1 (HBM ALPHA THERAPEUTICS, published 2026):
Residue numbers refer to the chain shown, from its start.

B1: PR301777 (antibody, human IgG1, kappa, V domains shown)
VH: EMKLEESGGGLVQPGGSMKLSCVASGFTFSNYWMNWVRQSPEKGLEWVAEIRLKSNNYATHYAESVKGRFTISRDDSKSGVYLQMNNLGAEDTGIYYCTVGTLVYWGQGTLVTVSA
VL: DIVLTQSPASLAVSLGQRATISCRASQSVSTSTYNYMHWFQQKPGQPPKLLIKFASNLESGVPARFSGSGSGTDFTLNIHPVEEEDTATFYCQHSWEIPYTFGGGTKLEIKR
notes: Series 5; mouse variable domains, human IgG1 wildtype Fc
B2: PR302036 (antibody, human IgG1, kappa, V domains shown)
VH: EMQLVESGGGLVQPGGSLRLSCAASGFTFSNYWMNWVRQAPGKGLEWVAEIRLKSNNYATHYAESVKGRFTISRDDSKSSVYLQMNSLKTEDTAVYYCTVGTLVYWGQGTLVTVSS
VL: DIVLTQSPDSLAVSLGERATINCRASQSVSTSTYNYMHWFQQKPGQPPKLLIKFASNLESGVPDRFSGSGSGTDFTLTISSLQAEDTAVYYCQHSWEIPYTFGQGTKLEIKR
notes: humanized variant of PR301777
B3: PR302038 (antibody, human IgG1, kappa, V domains shown)
VH: B2 VH
VL: EIVLTQSPATLSLSPGERATLSCRASQSVSTSTYNYMHWFQQKPGQAPRLLIKFASNLESGIPARFSGSGSGTDFTLTISSLEPEDTAVYYCQHSWEIPYTFGQGTKLEIKR
notes: humanized variant of PR301777
B4: PR302031 (antibody, human IgG1, kappa, V domains shown)
VH: B2 VH with M2V, A49G, S79N, V81L
VL: B3 VL
notes: humanized variant of PR301777
B5: PR302045 (antibody, human IgG1, kappa, V domains shown)
VH: B2 VH with M2V, R19K, P41S, A49G, S79N, S80T, V81A, V100R
VL: B3 VL
notes: humanized variant of PR301777
B6: PR302043 (antibody, human IgG1, kappa, V domains shown)
VH: B2 VH with M2V, R19K, P41S, A49G, S79N, S80T, V81A, V100R
VL: B2 VL
notes: humanized variant of PR301777
B7: PR302050 (antibody, human IgG1, kappa, V domains shown)
VH: B2 VH with R19K, P41S, S80T
VL: B2 VL
notes: humanized variant of PR301777
B8: PR302052 (antibody, human IgG1, kappa, V domains shown)
VH: B2 VH with R19K, P41S, S80T
VL: B3 VL
notes: humanized variant of PR301777
B9: PR302029 (antibody, human IgG1, kappa, V domains shown)
VH: B2 VH with M2V, A49G, S79N, V81L
VL: B2 VL
notes: humanized variant of PR301777
B10: PR005657 (antibody, human IgG1, kappa, V domains shown)
VH: EVQLVESGGVLVQPGGSLRLSCAASGFTFSSYWMTWVRQAPGKGLEWVANIKQDASEKYYVDSVKGRFTISRDNAKNSLFLQMNSLRAEDTAVYYCARTLIFDYWGQGTLVTVSS
VL: DIVMTQSPLSLPVTPGEPASISCRSSQSLLHSTGYNSLEWYLQKPGQSPQLLIYLGSNRASGVPDRFSGSGSGTDFTLKISRVEAEDVGIYYCMQTLQTPITFGQGTRLEIKR
notes: PTM-removal variant of PR004290

Molecular target: T1, CRH (NT-Biotin) (human and mouse (same sequence), not fully specified; biotin at the N-terminus)
T1 peptide: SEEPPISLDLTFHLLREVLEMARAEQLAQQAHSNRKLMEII
Assay: ELISA, biotinylated CRH on streptavidin plate
Experimental: (§1) Streptavidin (Thermo, Cat: 21125) was diluted in PBS to a concentration of 2 μg/ml. 100 μl of diluted streptavidin was added per well to ELISA microplates, and the plates were incubated overnight at 4° C. […] 100 μL of 3,3′,5,5′-tetramethylbenzidine (TMB) substrate (Biopanda, Cat: TMB-S-003) was added, and the plates were incubated at room temperature for 15 minutes. 100 μL of ELISA stopping solution (Solarbio, Cat #: C1058) was added to terminate the reaction, and the optical density at 450 nm (OD450 nm) was determined by an ELISA plate reader (Molecular Devices, Spectra max 384 plus).

| Binder | EC50 [nM] |
| --- | --- |
| B1 | 0.043 |
| B2 | 0.04 |
| B3 | 0.065 |
| B4 | 0.037 |
| B5 | 0.128 |
| B6 | 0.046 |
| B7 | 0.021 |
| B8 | 0.048 |
| B9 | 0.03 |

Molecular target: T2, CRH (CT-Biotin) (human and mouse (same sequence), biotin on an added C-terminal K (CRH-K-Biotin))
T2 construct: also called Peptide 4 (CRH-Biotin)
T2 peptide: T1 peptide
Assay: ELISA, biotinylated CRH on streptavidin plate
Experimental: as §1

| Binder | EC50 [nM] |
| --- | --- |
| B1 | 0.043 |
| B2 | 0.033 |
| B3 | 0.04 |
| B4 | 0.028 |
| B5 | 0.046 |
| B6 | 0.03 |
| B7 | 0.01 |
| B8 | 0.018 |
| B9 | 0.027 |

Molecular target: T3, corticotropin-releasing hormone (CRH) peptide (human and mouse (same sequence), not fully specified)
T3 peptide: T1 peptide
Assay: cell-based or functional assay

| Binder | hCRHR1 Luciferase Reporter Assay IC50 [nM] | mCrhr1 Luciferase Reporter Assay IC50 [nM] |
| --- | --- | --- |
| B1 | 0.674 | 2.42 |
| B2 | 1.4 | 3.03 |
| B3 | 3.34 | 10.1 |
| B4 | 14 |  |
| B5 | 15.3 |  |
| B6 | 3.87 | 9.97 |
| B7 | 0.572 | 2.7 |
| B8 | 2.05 | 7.32 |
| B9 | 2.65 | 13.9 |

Molecular target: T2, CRH (CT-Biotin)
Assay: ELISA, biotinylated CRH on streptavidin plate
Remark: another data set of the same source
Experimental: as §1

| Binder | EC50 [nM] |
| --- | --- |
| B10 | 0.045 |

Molecular target: T3, corticotropin-releasing hormone (CRH) …
Assay: cell-based or functional assay
Remark: another data set of the same source

| Binder | hCRHR1 Luciferase Reporter Assay IC50 [nM] | mCrhr1 Luciferase Reporter Assay IC50 [nM] |
| --- | --- | --- |
| B10 | 4.6 | 11.8 |
